Measurements as given in the supplement of paper PMC9112550, “Optimization of the antimicrobial peptide Bac7 by deep mutational scanning” (BMC Biology, 2022).

Tested on: Escherichia coli TOP10
Assay: shrunken log2 fold change of peptide-encoding DNA abundance (4.5 h post-induction vs induction); higher = less antimicrobial activity (less host growth inhibition)
Settings: time post-induction: 4.5 h; library: site-saturation at positions 5, 18, 19, 20
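Also: peptides expressed intracellularly from a pBAD plasmid library in pooled LB shake-flask culture, induced with 0.3% L-arabinose, DNA abundance read by NGS, three biological replicates, DESeq2 with apeglm shrinkage.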

Sequence | shrunken log2 fold change
RRIRRRPPRLPRPRPRPPHGPRP | 0.596
RRIRHRPPRLPRPRPRPIYYPRP | -0.32
RRIRERPPRLPRPRPRPYAEPRP | -0.447
RRIRHRPPRLPRPRPRPHGVPRP | 0.00355
RRIRWRPPRLPRPRPRPSHYPRP | -0.557
RRIRPRPPRLPRPRPRPSTAPRP | -0.105
RRIRSRPPRLPRPRPRPESHPRP | -0.44
RRIRRRPPRLPRPRPRPPFGPRP | 0.453
RRIRKRPPRLPRPRPRPPLHPRP | 0.694
RRIRIRPPRLPRPRPRPPQTPRP | 0.0803
RRIRMRPPRLPRPRPRPWEMPRP | -0.0802
RRIRGRPPRLPRPRPRPRRPPRP | 0.756
RRIRSRPPRLPRPRPRPSGAPRP | 0.12
RRIRERPPRLPRPRPRPVGQPRP | 0.129
RRIRGRPPRLPRPRPRPYYYPRP | -0.824
RRIRPRPPRLPRPRPRPHKKPRP | 0.165
RRIRQRPPRLPRPRPRPVGPPRP | 0.231
RRIRERPPRLPRPRPRPAKHPRP | -0.107
RRIRYRPPRLPRPRPRPPGNPRP | -0.0342
RRIRSRPPRLPRPRPRPLISPRP | -0.173
RRIRRRPPRLPRPRPRPNVDPRP | -0.125
RRIRMRPPRLPRPRPRPCQYPRP | 0.0396
RRIRSRPPRLPRPRPRPDQNPRP | -0.182
RRIRQRPPRLPRPRPRPADAPRP | 0.242
RRIRVRPPRLPRPRPRPMPYPRP | 0.122

Sequence | shrunken log2 fold change
RRIRKRPPRLPRPRPRPTITPRP | -0.1
RRIRCRPPRLPRPRPRPNHCPRP | -0.551
RRIRFRPPRLPRPRPRPMERPRP | -0.208
RRIRFRPPRLPRPRPRPVWHPRP | -0.0142
RRIRSRPPRLPRPRPRPYAWPRP | -0.087
RRIRPRPPRLPRPRPRPRSIPRP | -0.149
RRIRFRPPRLPRPRPRPKLNPRP | -0.193
RRIRMRPPRLPRPRPRPLGMPRP | -0.112
RRIRWRPPRLPRPRPRPAWMPRP | 0.139
RRIRGRPPRLPRPRPRPNTWPRP | 0.237
RRIRERPPRLPRPRPRPFGYPRP | -0.0787
RRIRQRPPRLPRPRPRPKMAPRP | 0.12
RRIRQRPPRLPRPRPRPMFQPRP | -0.467
RRIRNRPPRLPRPRPRPNLQPRP | -0.446
RRIRARPPRLPRPRPRPNWGPRP | -0.267
RRIRGRPPRLPRPRPRPVWAPRP | 0.591
RRIRFRPPRLPRPRPRPQSQPRP | 0.0846
RRIRYRPPRLPRPRPRPLDEPRP | 3.09
RRIRARPPRLPRPRPRPVSEPRP | 0.338
RRIRRRPPRLPRPRPRPRQGPRP | 0.298
RRIRNRPPRLPRPRPRPMIQPRP | -0.715
RRIRMRPPRLPRPRPRPTQSPRP | 1.03
RRIRPRPPRLPRPRPRPLYIPRP | -0.227
RRIRMRPPRLPRPRPRPCHGPRP | 0.241
RRIRVRPPRLPRPRPRPQHWPRP | 0.171

Sequence | shrunken log2 fold change
RRIRTRPPRLPRPRPRPRDYPRP | 0.104
RRIRSRPPRLPRPRPRPRELPRP | 0.0421
RRIRTRPPRLPRPRPRPSWAPRP | 0.195
RRIRSRPPRLPRPRPRPVNFPRP | -0.262
RRIRRRPPRLPRPRPRPPYWPRP | 0.625
RRIRTRPPRLPRPRPRPNKAPRP | -0.0944
RRIRVRPPRLPRPRPRPHPNPRP | -0.00326
RRIRQRPPRLPRPRPRPEYCPRP | -0.0411
RRIRVRPPRLPRPRPRPSLKPRP | 0.215
RRIRGRPPRLPRPRPRPGYSPRP | 2.2
RRIRVRPPRLPRPRPRPHCSPRP | -0.0738
RRIRQRPPRLPRPRPRPGNAPRP | 0.322
RRIRKRPPRLPRPRPRPAPQPRP | 0.937
RRIRQRPPRLPRPRPRPCGPPRP | -0.141
RRIRWRPPRLPRPRPRPSEPPRP | -0.266
RRIRFRPPRLPRPRPRPAKNPRP | -0.0212
RRIRPRPPRLPRPRPRPACSPRP | 0.184
RRIRYRPPRLPRPRPRPICMPRP | -0.018
RRIRMRPPRLPRPRPRPCKAPRP | 0.173
RRIRHRPPRLPRPRPRPPVDPRP | 1.89
RRIRQRPPRLPRPRPRPPYWPRP | 0.0656
RRIRCRPPRLPRPRPRPCWIPRP | -0.464
RRIRKRPPRLPRPRPRPMSEPRP | 0.148
RRIRSRPPRLPRPRPRPMTIPRP | -0.0727
RRIRFRPPRLPRPRPRPSVYPRP | -0.158

Sequence | shrunken log2 fold change
RRIRERPPRLPRPRPRPTGKPRP | -0.0509
RRIRKRPPRLPRPRPRPELYPRP | 0.0137
RRIRIRPPRLPRPRPRPMMPPRP | -0.238
RRIRTRPPRLPRPRPRPCLSPRP | 0.079
RRIRVRPPRLPRPRPRPCNWPRP | -0.327
RRIRVRPPRLPRPRPRPSKFPRP | -0.579
RRIRSRPPRLPRPRPRPCYLPRP | -0.586
RRIRFRPPRLPRPRPRPHAEPRP | -0.00295
RRIRCRPPRLPRPRPRPDMGPRP | -0.406
RRIRNRPPRLPRPRPRPSFTPRP | -0.255
RRIRRRPPRLPRPRPRPSLPPRP | 0.44
RRIRWRPPRLPRPRPRPCVDPRP | 0.0275
RRIRDRPPRLPRPRPRPKMMPRP | -0.154
RRIRFRPPRLPRPRPRPHIPPRP | -0.289
RRIRCRPPRLPRPRPRPWGHPRP | -0.092
RRIRPRPPRLPRPRPRPKAMPRP | 0.000243
RRIRSRPPRLPRPRPRPTAHPRP | 0.284
RRIRSRPPRLPRPRPRPYTWPRP | -0.989
RRIRRRPPRLPRPRPRPMFNPRP | -0.146
RRIRMRPPRLPRPRPRPIYCPRP | -0.163
RRIRGRPPRLPRPRPRPQNRPRP | 0.0342
RRIRLRPPRLPRPRPRPFHCPRP | -0.0953
RRIRDRPPRLPRPRPRPPTSPRP | 0.00594
RRIRRRPPRLPRPRPRPRIKPRP | 0.142
RRIRSRPPRLPRPRPRPQQGPRP | 0.162

Sequence | shrunken log2 fold change
RRIRQRPPRLPRPRPRPPLAPRP | 0.691
RRIRDRPPRLPRPRPRPRHNPRP | -0.548
RRIRNRPPRLPRPRPRPQGCPRP | 0.0942
RRIRNRPPRLPRPRPRPLHAPRP | -0.0128
RRIRIRPPRLPRPRPRPAKLPRP | -0.302
RRIRARPPRLPRPRPRPGRKPRP | 0.43
RRIRDRPPRLPRPRPRPSHKPRP | -0.373
RRIRTRPPRLPRPRPRPDDCPRP | -0.0459
RRIRRRPPRLPRPRPRPGGLPRP | 0.289
RRIRVRPPRLPRPRPRPCLMPRP | -0.178
RRIRGRPPRLPRPRPRPSSGPRP | 0.0321
RRIRQRPPRLPRPRPRPTTDPRP | -0.0492
RRIRHRPPRLPRPRPRPKNFPRP | -0.0655
RRIRIRPPRLPRPRPRPALLPRP | 0.178
RRIRSRPPRLPRPRPRPTVDPRP | 0.16
RRIRVRPPRLPRPRPRPMEQPRP | -0.033
RRIRPRPPRLPRPRPRPGKIPRP | -0.168
RRIRNRPPRLPRPRPRPIASPRP | 0.0215
RRIRMRPPRLPRPRPRPSQIPRP | -0.03
RRIRKRPPRLPRPRPRPAQPPRP | 0.764
RRIRKRPPRLPRPRPRPAGKPRP | 0.582
RRIRERPPRLPRPRPRPVKNPRP | 0.0428
RRIRSRPPRLPRPRPRPIVVPRP | 0.027
RRIRYRPPRLPRPRPRPFQSPRP | -0.0418
RRIRYRPPRLPRPRPRPECNPRP | -0.0877
